From the DeepSol protein solubility set

Experiment: soluble on expression in E. coli; label from the status in PepcDB or PDB records

Sequence | soluble on expression in E. coli
RERLLSEAKATLQNYVAIAMTAIKPLYDAAAPGDEAARANAIKLLSAVSYGKDGYLFGYDSQVVRIFRSTSPDGLGKSFVDARDANGVYINR | not soluble
MASGKVRCTRKLRSWIVEQVESGHFPGVCWDDAAKTMFRIPWKHAGKQDFREDQDAAIFKAWALFKEKHKDGDIGHPAVWKTRLRCALNKSSEFEEVPERGRMDVAEPYKVYRILPAGTLPNQPRNQKSPCKRSISCVSPEREENMENGRTNGVVNHSDSGSNIGGGGNGSNRSDSNSNCNSELEEGAGTTEATIREDPVFLEHQLPLNSDYSLLLTFIYGGRVVGKTQVHSLDCRLVAERSDSESSMEQVEFPKPDPLEPTQHLLNQLDRGVLVASNSRGLFVQRLCPIPISWNAPEAPPGPGPHLLPSNKCVELFKTTYFCRDLAQYFQGQGPPPKFQATLHFWEESPGSSHSQENLITVQMEQAFARHLLEKIPEEEKAALFLLQHTEQSPSALGH | soluble
MGSDKIHHHHHHMQVRIERAERIESELEEHVGDQTFVEESRFLEEDEQREGEILDQIIFVDGKRRSFVRITTDEGITGIFAELCVGAVIWDREGGTKTLFSPDKPPVKERVLGFSQSFQEEGYEEVGGILFKVVKEGKDAMQSIDLYMRSLEIEEVRKHMDKNILIVKDGPAARELPFEENVGPIGLVKNIGVTELSKEDFKKLRFLKKGKRSKMFVSSRETPLKKVGAYVKLIDGEGIRGLVRLETYVKDDNQIPYIRKVFDDLAKTLPHLTADLPIPRLPENILPIQFLEENLSYYLTDKNYMNTRLFAYIGR | soluble
MGSDKIHHHHHHMNSGPVSVACAQGSHGGDVVRLAARLGISPTDILDFSSNANSLCDDLTRQVLAQTGYAHSHYPDSECTGLRHRIAGFEETQPERILAGNGSSELIYLAMHSLKPRRVLLIAPVFSEYVRACQACGADYRLFETDPYDGFDIPERHICRLHDAVTAYRPDMAVICAPSNPACTDYSRMDDILYALDCPHVLVDNSYLDFLWGTPAYSRHGMAAYAGCTRTETKVISLRSMTKFFYCTGVRLGYCHADEQTIERMNRCKTPWSVWHAAQQAGMAFLDRMDEYRLRLPAMRAEKTAFAGALRNTGIFDNNLVLEGANFVTARLQRPAKAATVYTELLQHGILVRLCDNIPGMPQGFIRMQVREKKAWSRLTAILGTLDAE | not soluble
MMTLIRITSADDSRLNRLIPLYEESFPESERRKIGQLKRMIENHAPMYFNAIECDGELSGMFVYWDMGDFYYLEHLAVFPEMRNKKIGQQVLDYVAEHLKGVRLLEVEPTEDEMTTRRVNYYRRNGYEVLDKTYVQPSYHALEDACPLWIMGSEDSPRLAEQVERIKEEVYRQQVG | not soluble
SLKKKSLKLTALFLALSCFPAFAEQTVDIEVQGIRGFRAVRNTDLNVNLINKEEMDGSERYQHLVTKAVDRGLRVFGYYESSVRFERKQRQGKRDLLIAHVTPGEPTKIAGTDVQIEGEAAQDENFNALRKNLPKDGVLVEHQTYDDYKTAISRLALNRGYFDGNFKISRLEISPETHQAWWRMLFDSGVRYHYGNITFSHSQIRDDYLNNILNIKSGDPYLMNNLSDLTSDFPSSNWFSSVLVQPNVNHKSKTVDVEIILYPRKKNAMELGVGFSTDGGVHGQIGWTKPWINSRGHSLRSNLYLSAPKQTLEATYRMPLLKNPLNYYYDFAVGWEGEKENDTNTRVLTLSALRYWNNAHGWQYFGGLRMRYDSFTQADITDKTLLLYPTVGFTRTRLRGGSFATWGDVQKITFDLSKRIWLSESSFIKVQASSAWVRTYAENHRVVARAEIGYLHTKGIEKIPPTLRFFAGGDRSVRGYGYKKIAPKNRNGKLVGGSRLLTTSLEYQYQVYPNWWAATFADSGLAADNYTAKELRYGTGVGVRWASPVGAIKFDIATPIRDKDNSKNIQFYIGLGTEI | soluble
MTISNSNLLKPFITGTELPPFKEDVFSKTEEQFKKSTYGKSLFISGNENLVNISAEKIDEIKNSKNFFSNIVNIIILLIKHPDKILPILHGCPVESIEVIKNAKRTGQWSYEMTDKNGQSIEVSYIFTDTIDDKSDGKLCLKICNSCNQNDSSTHEYKIDHQQLKNHIRQLEEWALLEKFYDNNAYYSKRTKQLEKKIADAGFITRKVKAENFNVKEFKDDIASMLCEQPPMRTHQISSSGYVSADKLHKLYKTNLEDAQRDLKTTPVDIDGVSLKSITREKIAEEIAKKTAEIIAKQNAKSIEEKNIEKNKKQTNSEDNFVLKFSPEEINEMLLDYSDEEQKKLRPFFTSDHIYCLFDAFSQGLHNVARNGSPRYAGLLRQIASKSAILQDFDQQLFWRTFTGGVLHRHISVKSEPEKTDVWRFSSQFDFPHINENGELSRTVLMFEGVAESNFKDIANHSSECFSYRCYAAPLDANAKK | soluble
MGSDKIHHHHHHMERNEMLKKVEAAMPNARFKHTLGVEKAAVELAEHYHMDVEKARITALLHDYAKYYDDDKARKIIEDEGYDPRLLSFHRSLWHAPVGAYLAEKEFGITDTEILEAIRLHTTGSATMSDFDKLIYLADYTEQGRTFPGVYKARRLALKSLNEAMLFALSNTITHLVKKQQLVFPDTLDAYNYFVNLNLEGDY | not soluble
MGSDKIHHHHHHMTEFAIELTGINKSFGAVKANRDVTMSVPKGSIHGIIGENGAGKSTLMSILYGYYHADSGTIRVNGKDVRIRNSQEAIRLGIGMVHQHFMLVETFTVLENIVLGAEGGRLLKGGMEQAREHLKELNKNYSLEVDPDALVGDLGVGLQQRVEILKALYRGADVLILDEPTAVLTPQEADHLFHILRSLKAQGKTVILITHKLREVMDITDNVSVMRAGTVVDNVRTCDVDKEKLADLMVGRKVSLKVDKADSQAGAAVLDVQGLTLIDERKVKLLDNLNFQVRAGEIVGIAGVSGNGQSELLEVLAGMRDPSAGAVVYKGEDLLKLPCRRKPRAAVYRQRGIGHIPEDRSREGLVKAFSTFENAILGYHDDKTLNSGPLYSRKKLVERTRDFIAQFDIRPGNPLLRVGLLSGGNQQKVVLAREIHANPDLLLIGQPTRGVDIGAIEFIHKRLIELRDEGKAILLVSVELEEILALSDRILVMAGGQITGEVAAKDADTISLGLLMGGHKH | not soluble
MGSDKIHHHHHHMKIELENCQKSLTLKDFEEIESKLGYALPERLKEFYLQYNGGSTKQTASINKYQEVEIEDFFPFKYNKDFKNDPRYTAEGETLELRKAGAISDSILIFAMESTDEGRITIDLVNGKIYLYPIVGMQDVIFNFEEPRLVANSIDDFFDNLVVLDGHKAIPAIEEIEEGQTETAGVMPELSDCSASLTKEDIKNFEVELNVKIPAGMKNFYLKFNGGMPSPYCYQPQDEDLDRVEINAFFPIKERTNAFETIEVIAKGIWSRNLMPCNLLPFAMDSGGNYYALNLKNKKIYYYLTDEWDENASREYNFETNTRYIAQSFNYFINHFIEEEE | not soluble
SLMVPVEIRWQQGGSKVYVTGSFTKWRKMIGLIPDSDNNGSFHVKLRLLPGTHRFRFIVDNELRVSDFLPTATDQMGNFVNYIEVRQPEKNPTNEKIRSKEADSMRPPTSDRSSIALQIGKDPDDFGDGYTRFHEDLSPRPPLEYTTDIPAVFTDPSVMERYYYTLDRQQSNTDTSWLTPPQLPPQLENVILNKYYATQDQFNENNSGALPIPNHVVLNHLVTSSIKHNTLCVASIVRYKQKYVTQILYTPI | soluble
MLFTVTAPKEVYTVDVGSSVSLECDFDRRECTELEGIRASLQKVENDTSLQSERATLLEEQLPLGKALFHIPSVQVRDSGQYRCLVICGAAWDYKYLTVKVKASYMRIDTRILEVPGTGEVQLTCQARGYPLAEVSWQNVSVPANTSHIRTPEGLYQVTSVLRLKPQPSRNFSCMFWNAHMKELTSAIIDPLSRMEPKVPRT | soluble
MRGSHHHHHHGSENLYFQSGAMEIREQLNLGGIVNAQNAQLSNCSDGAAQLESCGTAPDLKGITGWLNTPGNKPIDLKSLRGKVVLIDFWAYSCINCQRAIPHVVGWYQAYKDSGLAVIGVHTPEYAFEKVPGNVAKGAANLGISYPIALDNNYATWTNYRNRYWPAEYLIDATGTVRHIKFGEGDYNVTETLVRQLLNDAKPGVKLPQPSSTTTPDLTPRAALTPETYFGVGKVVNYGGGGAYDEGSAVFDYPPSLAANSFALRGRWALDYQGATSDGNDAAIKLNYHAKDVYIVVGGTGTLTVVRDGKPATLPISGPPTTHQVVAGYRLASETLEVRPSKGLQVFSFTYG | soluble
MTIIKLERRDVRLLLLYEFRLGHSAMEAERNICGAMGEGALSYNTAKSWFQKFKNGDFSLEEIERSGRPVELNEEDLVKLVEEEPRLSLREMEEKLECCHSTIPRHLGRLGFTSKLGTWVPHELSASQKLTRVNVCTQLLTFRRKFDWLNNLVTGDEKWVLYVNHSRKRQWLPIGEKGIPTPKPDLHPKKIMICV | soluble
APLAHCDGRGGLKLSQDMDTCEDILPCVPFSVAKSVKSLYLGRMFSGTPVIRLRFKRLQPTRLVAEFDFRTFDPEGILLFAGGHQDSTWIVLALRAGRLELQLRYNGVGRVTSSGPVINHGMWQTISVEELARNLVIKVNRDAVMKIAVAGDLFQPERGLYHLNLTVGGIPFHEKDLVQPINPRLDGCMRSWNWLNGEDTTIQETVKVNTRMQCFSVTERGSFYPGSGFAFYSLDYMRTPLDVGTESTWEVEVVAHIRPAADTGVLFALWAPDLRAVPLSVALVDYHSTKKLKKQLVVLAVEHTALALMEIKVCDGQEHVVTVSLRDGEATLEVDGTRGQSEVSAAQLQERLAVLERHLRSPVLTFAGGLPDVPVTSAPVTAFYRGCMTLEVNRRLLDLDEAAYKHSDITAHSCPPVEPAAA | soluble
AVPIAQKSEPHSLSSEALMRRAVSLVTDSTSTFLSQTTYALIEAITEYTKAVYTLTSLYRQYTSLLGKMNSEEEDEVWQVIIGARAEMTSKHQEYLKLETTWMTAVGLSEMAAEAAYQTGADQASITARNHIQLVKLQVEEVHQLSRKAETKLAEAQIEELKQKTQEEGEERAESEQEAYLRED | soluble
KNKTIEVYVDRATLPTIQQMTQIINENSNNKKLISWSRYPINDETLLESINGSFFKNRPELIKSLDSMILTNEIKKVIINGNTLWAVDVVNIIKSIEALGKKTEIELNFYDDGSAEYVRLYDFSRLPESEQEYKISLSKDNIQSSINGTQPFDNSIENIYGFSQLYPTTYHMLRADIFETNLPLTSLKRVISNNIKQMKWDYFTTFNSQQKNKFYNFTGFNPEKIKEQYKASPHENFIFIGTNSGTATAEQQIDILTEAKKPDSPIITNSIQGLDLFFKGHPSATYNQQIIDAHNMIEIYNKIPFEALIMTDALPDAVGGMGSSVFFSLPNTVENKFIFYKSDTDIENNALIQVMIELNIVNRNDVKLISDLQ | soluble
GSSWSAINPEYAARMRIQNRFKTGLDIAKYTAAIMRKDMAEYDADSSVYTQSLGCWHGFIGQQKLISIKKHLKTTNKRYLYLSGWMVAALRSDFGPLPDQSMHEKTAVSGLIEELYTFLRQADARELDLLFTGLDAARAAGDKAKEAELLAQIDNFETHVVPIIADIDAGFGNAEATYLLAKKMIEAGACCIQIENQVSDEKQCGHQDGKVTVPHIDFLAKINAVRYAFLELGVDDGVIVARTDSLGAGLTKQIAVTNEPGDLGDLYNSFLDCEEISESELGNGDVVIKREGKLLRPKRLASNLFQFRKGTGEDRCVLDCITSLQNGADLLWIETEKPHVGQIKAMVDRIREVIPNAKLVYNNSPSFNWTLNFRQQVFDAFVAEGKDVSAYDRNKLMSVEYDDTELAKVADEKIRTFQRDGSAHAGIFHHLITLPTYHTAALSTDNLAKGYFADEGMLAYVKGVQRQELRQGIACVKHQNMAGSDIGDNHKEYFAGEAALK | not soluble
